In the supplement of paper PMC6757056:
± gives the standard deviation of the averaged measurements.

B1: library; a variant is named by its letters at N, in order (parent)
chain: GCUGUCACCGGUGCUUGGUACGUUAUAUUCAGCCGGUCUGAUGAGUCUNNNNNNAGACGAAACAGC

Tests used:
[1] = variants of: B1; assay: normalized RNA/DNA level without ligand (relative to sTRSVctl = 100) (log10 (% of sTRSVctl)); HEK293T overexpressing SLC46A1; higher = less ribozyme self-cleavage, higher mRNA level; conditions: without (6R,S)-folinic acid; ligand present: no
Method in brief: (§1)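 HEK293T cells were transfected with library plasmids carrying ribozyme switches linked to an mCherry reporter, or an eGFP reporter in some ligand experiments, at 4 µg per well of a 6-well plate, with any ligand added 1 h beforehand. After 72 h, total RNA was extracted with EDTA, reverse-transcribed, amplified, barcoded and sequenced. RNA level was defined as RNA reads over DNA reads, normalized to a spiked-in non-cleaving sequence or to the top-ranked sequences. That value was multiplied by 100 and converted to log10, the top set was 25 sequences, and only sequences with ≥100 DNA reads were retained.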

[2] = variants of: B1; assay: normalized RNA/DNA level with ligand (relative to sTRSVctl = 100) (log10 (% of sTRSVctl)); HEK293T overexpressing SLC46A1; ligand concentration (+) RNA-Seq: 6 mM; higher = less ribozyme self-cleavage, higher mRNA level; conditions: with (6R,S)-folinic acid; ligand present: yes
Method in brief: as §1

Variant | normalized RNA/DNA level without ligand (log10) [1] | normalized RNA/DNA level with ligand (log10) [2]
UCUCUG | 1.89 ± 0.011 | 1.96 ± 0.027
UCUCUC | 2.076 ± 0.015 | 2.04 ± 0.035
UCUCUU | 2.06 ± 0.034 | 2.06 ± 0.059
CCUGGU | 2.044 ± 0.0037 | 2.088 ± 0.011
CCUGGG | 2.012 ± 0.01 | 2.017 ± 0.0021
CCUGGC | 2.051 ± 0.013 | 2.05 ± 0.045
CCUGGA | 2.046 ± 0.0022 | 2.068 ± 0.0024
GCUGUA | 2.019 ± 0.018 | 2.04 ± 0.033
GCUGUC | 2.0466 ± 0.00088 | 2.02 ± 0.026
GCGUAU | 2.03 ± 0.026 | 2.06 ± 0.022
CCGUUU | 2.037 ± 0.0047 | 2.013 ± 0.02
CCGUUC | 2.048 ± 0.0038 | 2.03 ± 0.071
CCGUUA | 2.005 ± 0.0026 | 1.97 ± 0.055
CCGUUG | 1.99 ± 0.024 | 2.04 ± 0.044
ACUCAC | 2.058 ± 0.007 | 2.045 ± 0.0072
ACUCAG | 1.967 ± 0.0061 | 1.98 ± 0.036
GCGUGA | 1.999 ± 0.015 | 2.03 ± 0.038
GCGUGC | 2.043 ± 0.019 | 2.03 ± 0.038
GCGUGU | 1.974 ± 0.0053 | 2.04 ± 0.053
ACUGAC | 2.002 ± 0.0086 | 1.999 ± 0.0088
ACUGAU | 1.9488 ± 0.0011 | 2 ± 0.031
UCUAAG | 1.815 ± 0.014 | 2 ± 0.045
UCUAAC | 2.013 ± 0.0071 | 2.031 ± 0.018
UCUAAU | 1.974 ± 0.0063 | 2.005 ± 0.0055

Variant | normalized RNA/DNA level without ligand (log10) [1] | normalized RNA/DNA level with ligand (log10) [2]
UCUCGC | 2.1 ± 0.032 | 2.05 ± 0.028
UCUCGG | 2.03 ± 0.034 | 2.042 ± 0.0089
CCGGUC | 2.0714 ± 0.0011 | 2.03 ± 0.069
CCGGUA | 2.01 ± 0.038 | 2.009 ± 0.011
CCGGUG | 2.04 ± 0.04 | 2.051 ± 0.0038
CCGUGA | 2.03 ± 0.021 | 2.05 ± 0.037
CCGUGU | 2.039 ± 0.0037 | 2.048 ± 0.0091
CCGUGG | 2.022 ± 0.02 | 2.06 ± 0.023
CCGUGC | 2.03 ± 0.048 | 1.99 ± 0.041
CCUCCC | 2.095 ± 0.016 | 2.0404 ± 0.0018
CCUCCU | 2.06 ± 0.036 | 2.037 ± 0.0023
CCUCCG | 2.07 ± 0.029 | 2.049 ± 0.011
UCGGGG | 1.86 ± 0.027 | 1.99 ± 0.039
UCGGGC | 2.06 ± 0.021 | 2.03 ± 0.055
UCGGGA | 1.937 ± 0.012 | 2.03 ± 0.056
UCGGGU | 1.9958 ± 0.001 | 2.03 ± 0.038
ACGGUC | 2.088 ± 0.0078 | 2.06 ± 0.036
ACGGUG | 1.924 ± 0.0096 | 2.003 ± 0.013
ACGGUA | 1.9058 ± 0.0011 | 1.95 ± 0.029
UCUAGG | 1.982 ± 0.015 | 2.05 ± 0.026
UCUAGU | 1.984 ± 0.0028 | 2.04 ± 0.032
UCUAGC | 2.03 ± 0.024 | 2.02 ± 0.051
UCUAGA | 2.05 ± 0.024 | 2.043 ± 0.0037
CCUGCC | 2.058 ± 0.0075 | 2 ± 0.068

Variant | normalized RNA/DNA level without ligand (log10) [1] | normalized RNA/DNA level with ligand (log10) [2]
CCUGCA | 2.047 ± 0.0035 | 2.059 ± 0.0067
CCUGCG | 2.01 ± 0.016 | 2.033 ± 0.02
CCUAUU | 2.038 ± 0.0071 | 2.04 ± 0.022
CCUAUA | 2.029 ± 0.0081 | 2.01 ± 0.033
CCUAUG | 2.04 ± 0.031 | 2.06 ± 0.028
CCUAUC | 2.1 ± 0.023 | 2.0649 ± 0.0011
UCUCCG | 1.96 ± 0.065 | 2.022 ± 0.013
UCUCCU | 2.01 ± 0.028 | 2.02 ± 0.032
UCUCCC | 2.07 ± 0.021 | 2.06 ± 0.05
UCUCCA | 2.017 ± 0.0042 | 2.023 ± 0.0081
CCUCUU | 2.033 ± 0.012 | 2.022 ± 0.0093
CCUCUC | 2.072 ± 0.018 | 2.04 ± 0.078
CCUCUA | 2.029 ± 0.0036 | 2.03 ± 0.031
CCUCUG | 2.035 ± 0.011 | 2 ± 0.04
ACGUUG | 1.936 ± 0.0063 | 2.03 ± 0.043
ACGUUC | 2.07 ± 0.022 | 2.02 ± 0.037
GCUGAG | 1.974 ± 0.013 | 2.04 ± 0.039
GCUGAC | 1.986 ± 0.0051 | 2.01 ± 0.045
ACUGGA | 1.943 ± 0.0043 | 2 ± 0.058
ACUGGC | 2.045 ± 0.016 | 2.005 ± 0.016
ACUGGU | 1.952 ± 0.016 | 2 ± 0.07
UCGUGU | 1.998 ± 0.0023 | 2.029 ± 0.0088
UCGUGA | 1.955 ± 0.014 | 2.009 ± 0.0081
UCGUGC | 2.074 ± 0.015 | 2.055 ± 0.0071

Variant | normalized RNA/DNA level without ligand (log10) [1] | normalized RNA/DNA level with ligand (log10) [2]
UCGUGG | 1.947 ± 0.0075 | 2.02 ± 0.041
GCUAAG | 1.968 ± 0.003 | 2.024 ± 0.016
GCUAAA | 1.992 ± 0.009 | 2.02 ± 0.028
GCUAAC | 1.975 ± 0.015 | 2.015 ± 0.007
GCGGCU | 2.0832 ± 0.0008 | 2.05 ± 0.031
GCUAGA | 2.002 ± 0.0075 | 2.042 ± 0.012
GCUAGU | 1.98 ± 0.024 | 2.01 ± 0.046
GCUAGC | 2.035 ± 0.017 | 2.016 ± 0.012
GCUAGG | 1.951 ± 0.016 | 2.031 ± 0.0073
UCGUUA | 2.009 ± 0.0058 | 2.04 ± 0.038
UCGUUC | 2.0303 ± 0.002 | 2.01 ± 0.034
UCGUUU | 1.99 ± 0.03 | 2.028 ± 0.0051
UCUCAU | 2.032 ± 0.015 | 2.023 ± 0.011
UCUCAG | 1.958 ± 0.012 | 1.98 ± 0.027
UCUCAC | 2.098 ± 0.0045 | 2.04 ± 0.035
UCUCAA | 1.96 ± 0.0096 | 1.98 ± 0.024
UCUGAG | 1.745 ± 0.011 | 1.98 ± 0.03
UCUGAA | 1.911 ± 0.0014 | 1.98 ± 0.05
UCUGAC | 2.011 ± 0.0043 | 2.01 ± 0.052
UCUGAU | 1.973 ± 0.008 | 2 ± 0.046
ACUAUU | 2.027 ± 0.0052 | 2.02 ± 0.043
ACUAUC | 2.063 ± 0.0022 | 2.04 ± 0.038
ACUAUA | 1.983 ± 0.012 | 2.013 ± 0.0097
ACUAUG | 1.9049 ± 0.00034 | 2.008 ± 0.016

Variant | normalized RNA/DNA level without ligand (log10) [1] | normalized RNA/DNA level with ligand (log10) [2]
CCUCAA | 2.0335 ± 0.00095 | 2 ± 0.059
CCUCAG | 1.94 ± 0.024 | 1.96 ± 0.0042
CCUCAC | 2.0541 ± 0.0006 | 2.027 ± 0.013
CCUCAU | 2.03 ± 0.025 | 2 ± 0.054
UCGGUA | 1.93 ± 0.029 | 1.985 ± 0.015
UCGGUC | 2.09 ± 0.025 | 2.06 ± 0.051
UCGUCA | 2.045 ± 0.013 | 2.03 ± 0.045
UCGUCC | 2.064 ± 0.0091 | 2.0551 ± 0.00048
UCGUCU | 2.02 ± 0.035 | 2.04 ± 0.09
GCUCUU | 2.038 ± 0.014 | 1.998 ± 0.011
GCUCUA | 2.01 ± 0.024 | 2.03 ± 0.018
GCUCUC | 2.126 ± 0.0057 | 2.08 ± 0.039
ACUCGC | 2.034 ± 0.012 | 2.01 ± 0.041
ACUCGG | 1.979 ± 0.013 | 2.02 ± 0.024
ACUCGU | 2.028 ± 0.016 | 1.983 ± 0.016
ACUCGA | 1.994 ± 0.019 | 2.03 ± 0.025
GCGGGC | 1.95 ± 0.045 | 1.959 ± 0.017
GCGGGU | 2.05 ± 0.045 | 2.017 ± 0.012
GCGGGA | 2.041 ± 0.0095 | 2.06 ± 0.023
GCGGGG | 2.054 ± 0.0092 | 2.055 ± 0.017
